Experimental data: patent US20240174727A1, “LONG-ACTING NATRIURETIC PEPTIDES AND USES THEREOF” (Eli Lilly and Company, priority 2022, published 2024)
Substitutions are numbered along the chain they refer to. Numbered stars: 1 amine (or outer) side, 2 acyl side, 3 side chain; on linkers, the order of the positions; unused ones are H or OH. Bridge positions count the residues as written; N and C are the ends. Square brackets hold non-standard residues; d marks the D form. * marks the point of attachment. thioacetal = thioacetal linkage between two cysteines (intrachain bond at the bracketed Cys); C20 diacid = O=C(O)CCCCCCCCCCCCCCCCCCC(=O)*; γGlu = O=C(O)[C@H](CCC(=O)[*:2])N[*:1]; 4Pal = N[C@@H](Cc1ccncc1)C(=O)O; Aib = CC(C)(N)C(=O)O; βAla = NCCC(=O)O

T1: rat NPRA (rat, UniProt P18910 29-1057)
T1 sequence (looked up): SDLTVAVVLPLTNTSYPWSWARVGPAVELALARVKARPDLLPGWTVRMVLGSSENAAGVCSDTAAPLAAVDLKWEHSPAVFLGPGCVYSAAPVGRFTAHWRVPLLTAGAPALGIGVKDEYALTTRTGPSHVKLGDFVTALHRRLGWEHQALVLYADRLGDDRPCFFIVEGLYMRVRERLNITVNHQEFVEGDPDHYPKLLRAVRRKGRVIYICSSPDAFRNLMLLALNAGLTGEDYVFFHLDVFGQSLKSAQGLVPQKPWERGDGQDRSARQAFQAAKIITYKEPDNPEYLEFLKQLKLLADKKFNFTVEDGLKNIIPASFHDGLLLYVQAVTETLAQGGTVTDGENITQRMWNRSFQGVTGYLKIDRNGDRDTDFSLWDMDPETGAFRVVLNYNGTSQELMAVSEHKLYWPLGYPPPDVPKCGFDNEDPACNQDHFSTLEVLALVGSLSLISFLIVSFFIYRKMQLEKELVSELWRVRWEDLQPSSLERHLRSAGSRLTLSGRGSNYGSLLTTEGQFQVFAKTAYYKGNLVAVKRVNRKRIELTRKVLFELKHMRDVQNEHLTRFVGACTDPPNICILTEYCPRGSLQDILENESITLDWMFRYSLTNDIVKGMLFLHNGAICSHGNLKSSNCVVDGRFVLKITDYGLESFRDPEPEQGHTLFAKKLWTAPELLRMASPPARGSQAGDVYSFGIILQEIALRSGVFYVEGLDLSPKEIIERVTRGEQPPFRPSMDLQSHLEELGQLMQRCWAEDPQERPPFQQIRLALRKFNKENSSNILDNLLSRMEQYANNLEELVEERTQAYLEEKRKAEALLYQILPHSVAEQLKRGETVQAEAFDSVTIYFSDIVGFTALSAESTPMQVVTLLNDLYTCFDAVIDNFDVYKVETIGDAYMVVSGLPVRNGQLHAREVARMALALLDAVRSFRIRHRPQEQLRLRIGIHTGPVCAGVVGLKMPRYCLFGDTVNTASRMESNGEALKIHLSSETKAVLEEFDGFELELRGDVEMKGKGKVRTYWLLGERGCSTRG

T2: human NPRA (human, UniProt P16066 33-1061)
T2 sequence (looked up): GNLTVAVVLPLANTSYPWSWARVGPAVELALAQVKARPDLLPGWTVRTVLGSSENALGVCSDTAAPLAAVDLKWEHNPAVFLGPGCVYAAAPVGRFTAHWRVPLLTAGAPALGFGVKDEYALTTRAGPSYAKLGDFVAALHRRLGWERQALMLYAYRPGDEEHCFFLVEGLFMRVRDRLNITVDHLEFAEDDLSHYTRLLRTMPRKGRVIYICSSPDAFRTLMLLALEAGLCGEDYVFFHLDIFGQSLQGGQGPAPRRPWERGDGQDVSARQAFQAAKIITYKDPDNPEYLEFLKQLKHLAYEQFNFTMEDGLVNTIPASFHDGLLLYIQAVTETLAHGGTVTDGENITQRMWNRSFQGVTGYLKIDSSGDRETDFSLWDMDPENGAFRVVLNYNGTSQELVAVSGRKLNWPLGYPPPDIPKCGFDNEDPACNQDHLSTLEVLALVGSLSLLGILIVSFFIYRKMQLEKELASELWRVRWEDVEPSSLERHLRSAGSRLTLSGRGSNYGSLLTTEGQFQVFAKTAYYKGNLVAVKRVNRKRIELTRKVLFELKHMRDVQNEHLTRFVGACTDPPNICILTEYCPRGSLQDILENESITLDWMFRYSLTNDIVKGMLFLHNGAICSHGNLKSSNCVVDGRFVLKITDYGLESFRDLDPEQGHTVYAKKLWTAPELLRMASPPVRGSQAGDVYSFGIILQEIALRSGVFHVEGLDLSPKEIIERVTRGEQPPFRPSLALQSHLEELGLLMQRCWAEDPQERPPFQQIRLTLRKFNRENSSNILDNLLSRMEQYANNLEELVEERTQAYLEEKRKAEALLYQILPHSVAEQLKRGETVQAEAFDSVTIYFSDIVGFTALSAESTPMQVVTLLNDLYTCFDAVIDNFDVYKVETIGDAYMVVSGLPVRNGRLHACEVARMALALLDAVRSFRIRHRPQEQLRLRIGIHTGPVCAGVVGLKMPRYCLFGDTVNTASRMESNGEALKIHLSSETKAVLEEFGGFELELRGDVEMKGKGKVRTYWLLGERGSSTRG

B1: Example 39 (peptide)
peptide: {C20 diacid}-[γGlu]EKEKEKGS[4Pal]RRSSCFGGRIDRIGHQSGLGCPSFRHSGAPPPSE-NH2
modifications: disulfide 15-31
B2: Example 63 (peptide)
peptide: {C20 diacid}-[γGlu]EKEKEKGEK[βAla]RSSCFGGRIDRIGHYSGLGCPSLRHGGPSSGAPPPS-NH2
modifications: bridge 15-31 via thioacetal
B3: Example 67 (peptide)
peptide: {C20 diacid}-[γGlu]EKEKEKGS[4Pal]RRSSCFGGRIDRIGHQSGLGCPSFRHGGKSSGAPPPS-NH2
modifications: bridge 15-31 via thioacetal
B4: Example 3 (peptide)
peptide: EKXRSSCFGKRIDRIGHQSGLGCPSFRHGGKSSGAPPPS
modifications: HOOC-(CH2)18-CO-(γGlu)-EKEKEKG-PEG24-EK-βAla-RSS[CFGKRIDRIGHQSGLGC]PSFRHGGKSSGAPPPS-NH2; thioacetal linkage between the bracketed Cys
B5: Example 4 (peptide)
peptide: B4 peptide with G30S, K31P
modifications: HOOC-(CH2)18-CO-(γGlu)-EKEKEKG-PEG24-EK-βAla-RSS[CFGKRIDRIGHQSGLGC]PSFRHGSPSSGAPPPS-NH2; thioacetal linkage between the bracketed Cys
B6: Example 68 (peptide)
peptide: {C20 diacid}-[γGlu]EKEKEKGS[4Pal]RRSSCFGGRIDRIGHQSGLGCPSFRHGGPPS[Aib]KPPPK-NH2
modifications: bridge 15-31 via thioacetal
B7: Example 70 (peptide)
peptide: {C20 diacid}-[γGlu]EKEKEKGEK[βAla]RSSCFGGRIDRIGHYSGLGCPSFRHGGPSSGAPPPS-NH2
modifications: bridge 15-31 via thioacetal
B8: Example 1 (peptide)
peptide: XEKEKEKGSXRRSSCFGGRIDRIGHQSGLGCPSFRHGGPSSGAPPPS
modifications: HOOC-(CH2)18-CO-(γGlu)-EKEKEKGS-4Pal-RRSS[CFGGRIDRIGHQSGLGC]PSFRHGGPSSGAPPPS-NH2; disulfide linkage between the bracketed Cys
B9: Example 65 (peptide)
peptide: B8 peptide with X10K, R11X, Q26Y
modifications: HOOC-(CH2)18-CO-(γGlu)-EKEKEKGSK-βAla-RSS[CFGGRIDRIGHYSGLGC]PSFRHGGPSSGAPPPS-NH2; thioacetal linkage between the bracketed Cys
B10: Example 69 (peptide)
peptide: B8 peptide
modifications: not fully specified; HOOC-(CH2)18-CO-(γGlu)-EKEKEKGS-4Pal-RRSS[CFGGRIDRIGHQSGLGC]PSFRHGGPSSGAPPPS-NH2; thioacetal linkage between the bracketed Cys

Molecular target: T1, rat NPRA
Test: cell-based or functional assay

Point of comparison: B6, “cGMP Assay (EC50, pM) w/BSA” value 1.28e+06 pM. Against it:
- B1 — lower, 93300 pM
- B2 — lower, 785000 pM
- B3 — higher, 1.55e+06 pM
- B4 — lower, 959000 pM
- B5 — lower, 519000 pM
- B7 — lower, 712000 pM
- B8 — lower, 81900 pM
- B10 — lower, 804000 pM

Point of comparison: B4, “cGMP Assay (EC50, pM) w/Casein” value 36600 pM. Against it:
- B1 — lower, 439 pM
- B2 — lower, 10600 pM
- B3 — lower, 18800 pM
- B5 — lower, 22500 pM
- B6 — lower, 12100 pM
- B7 — lower, 11800 pM
- B8 — lower, 1810 pM
- B9 — lower, 7420 pM

Molecular target: T2, human NPRA
Test: cell-based or functional assay

Point of comparison: B1, “cGMP Assay (EC50, pM) w/BSA” value 9970 pM. Against it:
- B2 — higher, 63800 pM
- B3 — higher, 139000 pM
- B4 — lower, 6920 pM
- B5 — lower, 6180 pM
- B7 — higher, 92500 pM
- B8 — higher, 11600 pM
- B10 — higher, 61400 pM

Point of comparison: B6, “cGMP Assay (EC50, pM) w/Casein” value 924 pM. Against it:
- B1 — lower, 276 pM
- B2 — higher, 1090 pM
- B3 — higher, 1220 pM
- B4 — higher, 980 pM
- B5 — lower, 813 pM
- B7 — higher, 1840 pM
- B8 — lower, 335 pM
- B9 — lower, 614 pM
